Test results as given in IntAct's records for PubMed 16888622.

B1: TATA-box-binding protein (Saccharomyces cerevisiae), P13393 (parent)
chain: MADEERLKEFKEANKIVFDPNTRQVWENQNRDGTKPATTFQSEEDIKRAAPESEKDTSATSGIVPTLQNIVATVTLGCRLDLKTVALHARNAEYNPKRFAAVIMRIREPKTTALIFASGKMVVTGAKSEDDSKLASRKYARIIQKIGFAAKFTDFKIQNIVGSCDVKFPIRLEGLAFSHGTFSSYEPELFPGLIYRMVKPKIVLLIFVSGKIVLTGAKQREEIYQAFEAIYPVLSEFRKM
partner: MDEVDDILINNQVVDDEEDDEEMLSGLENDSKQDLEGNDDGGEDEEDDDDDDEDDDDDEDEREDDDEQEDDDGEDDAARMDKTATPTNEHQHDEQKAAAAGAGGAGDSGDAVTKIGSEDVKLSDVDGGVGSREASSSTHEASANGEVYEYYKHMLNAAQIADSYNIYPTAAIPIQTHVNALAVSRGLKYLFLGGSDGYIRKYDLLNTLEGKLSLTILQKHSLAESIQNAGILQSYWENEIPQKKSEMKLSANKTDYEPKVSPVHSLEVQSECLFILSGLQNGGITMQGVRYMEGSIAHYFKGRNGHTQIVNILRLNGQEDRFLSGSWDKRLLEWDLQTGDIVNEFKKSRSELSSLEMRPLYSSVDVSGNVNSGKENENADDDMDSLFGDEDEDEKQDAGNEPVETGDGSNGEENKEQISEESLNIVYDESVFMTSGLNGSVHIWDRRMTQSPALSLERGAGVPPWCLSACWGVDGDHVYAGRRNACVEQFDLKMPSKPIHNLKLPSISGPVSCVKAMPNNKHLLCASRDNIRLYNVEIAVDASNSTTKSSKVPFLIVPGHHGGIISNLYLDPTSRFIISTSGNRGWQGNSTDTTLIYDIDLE

Variants of: B1
Conditions: with spt8_yeast SPT8, P38915

Variant | effect of a mutation on the interaction
MADEERLKEFKEANKIVFDPNTRQVWENQNRDGTKPATTFQSEEDIKRAAPESEKDTSATSGIVPTLQNIVATVTLGCRLDLKTVALHARNAEYNPKRFAAVIMRIREPKTTALIFASGKMVVTGAKSEDDSKLASRKYARIIQKIGFAAKFTDFKIQNIVGSCDVKFPIELEGLAFSHGTFSSYEPELFPGLIYRMVKPKIVLLIFVSGKIVLTGAKQREEIYQAFEAIYPVLSEFRKM [R171E] | disrupting interaction
